Measured values taken from the supplement of paper PMC10567573.

B1: PTPLAD1 (parent)
chain: YINFRHLYKQRRRRYGQKKKKIH
B2: SCNN1D (parent)
chain: RRPSPVLRHLELLDEFARENIDSL

Variants of: B1
Assay: protein stability index of a GFP-peptide fusion (GPS, HEK-293T) (PSI 1-6); higher = more stable
Settings: c terminus: native
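Also: lentivirally expressed fusions sorted by FACS into six bins by GFP to DsRed ratio, PSI derived from sequencing read proportions per bin multiplied by bin number.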

Protein stability index: each site, then its substitutions
L7: Q 2.24 | E 2.79 | A 2.01 | T 2.26 | F 1.41 | G 2.68 | S 2.04 | H 2.31 | D 3.07 | V 2.93 | I 1.94 | Y 2.29 | R 2.77 | P 2.92 | N 2.72 | M 2.31
Y15: Q 1.88 | H 1.72 | S 1.74 | D 2.48 | C 2.22 | T 1.69 | E 4.57 | G 2.14 | L 2 | V 2.14 | M 1.37 | K 2.33 | N 1.11 | F 1.53 | I 2.11 | A 2.12 | R 2.85 | W 2.59
K18: E 2.17 | A 2.15 | Y 2.39 | S 1.65 | D 2.44 | F 2.46 | N 1.96 | T 2.19 | C 2.62 | R 1.97 | Q 1.56 | W 2.22 | P 1.52 | G 1.91 | L 2.42 | I 2.86 | M 1.78 | V 2.29
R14: I 1.6 | A 2.57 | Y 1.78 | T 1.22 | P 2.05 | S 1.85 | E 1.78 | N 2.15 | K 2.22 | G 2.47 | V 2.14 | H 1.96 | F 2.16 | L 2.34
G16: E 1.85 | W 2.76 | S 2.71 | N 1.4 | F 1.6 | H 1.35 | L 2.23 | Q 1.56 | V 2.44 | M 2.27 | D 2.6 | R 1.74 | K 2.57 | P 1.66 | A 2.54 | T 2.88 | C 2.27 | Y 1.25 | I 2.21
H6: T 2.02 | M 1.75 | S 1.84 | W 1.75 | P 1.7 | A 1.81 | F 1.54 | Y 1.88 | C 2.14 | L 2.3 | G 1.75 | V 2.06 | K 2.44 | E 1.73
R11: P 2.84 | C 1.58 | M 1.32 | L 1.61 | D 1.39 | H 2.15 | T 2.02 | G 2.54 | S 2.3 | A 1.72 | Q 2.37 | Y 2.61 | N 2.91 | K 1.65 | F 1.73
F4: E 3.23 | W 1.1 | I 2.43 | Q 2.77 | T 2.01 | R 2.96 | N 2.29 | Y 1.99 | D 3.02 | H 3.71 | C 2.03 | M 1.74 | L 2.87 | P 1.64 | S 3.2 | K 3.29 | G 1.9
I2: Y 2.1 | K 2.27 | R 2.05 | S 2.53 | V 1.97 | H 1.29 | D 3.45 | M 2 | C 2.2 | P 2.9 | A 2.7 | Q 3.45 | F 3.06 | N 3.6 | G 2.19 | L 3.44
Q17: W 1.63 | K 1.76 | A 2.66 | N 4 | V 1.89 | F 2.3 | L 2.07 | H 1.72 | M 1.73 | C 1.48 | P 1.46 | Y 1.7 | E 2.55 | G 2.25 | R 2.59 | D 2.23 | T 2.54
Q10: S 1.7 | A 2.59 | K 2 | W 1.8 | C 2.22 | M 1.96 | E 1.96 | Y 2.06 | V 1.47 | P 1.66 | G 1.92 | H 2.27 | D 1.88 | R 2.26 | F 2.15 | I 1.3 | L 2.14 | T 2.29
R13: P 3.64 | L 2.3 | N 1.25 | G 1.41 | D 1.37 | A 1.7 | V 2.13 | S 1.41 | H 2.4 | F 2.49 | Q 1.91 | Y 2.28 | I 1.9 | T 1.75 | E 2.09 | K 1.45
R5: S 1.17 | W 1.55 | M 1.59 | G 1.38 | F 2.14 | H 1.8 | A 2.93 | N 1.57 | P 2.49 | Q 2.3 | L 1.79 | Y 2.37 | D 2.02 | E 3.34 | T 2.38 | C 1.45 | I 1.53 | K 2.51
Y8: G 2.03 | W 2.9 | R 2.2 | I 1.56 | L 1.76 | D 3.25 | E 2.18 | P 2.81 | C 2.01 | N 2.72 | T 1.76 | S 1.95 | H 2.31 | K 2.5 | A 2.52
Y1: V 2.1 | K 1.94 | T 2.25 | N 2.97 | Q 2.24 | S 3.15 | W 2.96 | I 1.17 | P 1.93 | C 1.59 | R 1.35 | D 3.48 | H 2.9 | G 2.01 | A 2.93 | E 2.5 | L 1.79
K9: T 2.12 | A 3.21 | W 2.45 | R 3.03 | Y 2.6 | E 2.03 | L 1.55 | P 2.27 | I 2.26 | S 2.6 | C 1.83 | Q 1.92 | V 1.91 | H 2.17 | D 3.3 | G 1.95 | N 2.8
K19: D 2.66 | A 2.04
N3: P 2.09 | R 4.4 | C 1.57 | F 2.51 | I 1.58 | D 2.39 | T 2.31 | A 1.9 | L 2.72 | K 1.97 | W 1.37 | Y 1.71 | S 2.68 | Q 1.29 | H 2.52 | V 1.61 | E 1.61
R12: K 1.91 | Q 2.26 | A 1.44 | G 2.92 | M 2.44 | S 2.18 | N 2.05 | Y 2.01 | W 2.15 | E 1.58 | P 1.96 | I 2.44 | T 3.06 | V 3.11 | H 1.93 | F 1.62 | C 1.55 | D 2.24 | L 1.25

Variants of: B2
Assay: as above
Settings: c terminus: a fixed tail appended

Protein stability index of substitutions, site by site:
E11: F 1.89 | C 2.01
D14: K 1.8 | Y 2 | M 2.6 | W 1.44
A17: E 4.18 | Q 3.16
L13: V 3.6 | F 3.14
R18: H 3.17
V6: G 3.96 | I 1.95
L7: D 4.49 | V 3.1 | M 2.9
R2: V 2.93 | C 3.38
P3: Y 2.31
R1: V 2.36
L10: F 3.9
D22: I 2.15
E15: D 3.21 | V 2.29
S23: K 3.56
I21: L 2.95
H9: Y 1.83
N20: W 2.85
P5: S 2.85 | N 3.22 | W 1.93
